This passage reports Kd, koff and kon results from article PMC10215022 (mAbs, 2023).

In this experiment the target is SARS-CoV-2 Delta (B.1.617.2) spike protein RBD, His-tagged (SARS-CoV-2 Delta (B.1.617.2), UniProt P0DTC2). Put plainly: SPR. On the technique in general: Surface plasmon resonance follows binding to a sensor surface in real time, without labels.

B1: imdevimab (REGN10987) (antibody, V domains shown)
VH: QVQLVESGGGVVQPGRSLRLSCAASGFTFSNYAMYWVRQAPGKGLEWVAVISYDGSNKYYADSVKGRFTISRDNSKNTLYLQMNSLRTEDTAVYYCASGSDYGDYLLVYWGQGTLVTVSS
VL: QSALTQPASVSGSPGQSITISCTGTSSDVGGYNYVSWYQQHPGKAPKLMIYDVSKRPSGVSNRFSGSKSGNTASLTISGLQSEDEADYYCNSLTSISTWVFGGGTKLTVL
What is called Kd is the equilibrium constant for the complex coming apart. Low values mean tighter binding, high ones weaker binding. The term koff denotes the rate constant with which the complex falls apart. The kon is the second-order rate constant of association. Low readings indicate slow association, high ones fast association. B1 registered a Kd of 110 pM, a koff of 0.00028 s⁻¹ and a kon of 2.6e+06 M⁻¹ s⁻¹.

B2: casirivimab (REGN10933) (antibody, V domains shown)
VH: QVQLVESGGGLVKPGGSLRLSCAASGFTFSDYYMSWIRQAPGKGLEWVSYITYSGSTIYYADSVKGRFTISRDNAKSSLYLQMNSLRAEDTAVYYCARDRGTTMVPFDYWGQGTLVTVSS
VL: DIQMTQSPSSLSASVGDRVTITCQASQDITNYLNWYQQKPGKAPKLLIYAASNLETGVPSRFSGSGSGTDFTFTISGLQPEDIATYYCQQYDNLPLTFGGGTKVEIK
B2 displayed a Kd of 70 pM, a koff of 0.0002 s⁻¹ and a kon of 2.9e+06 M⁻¹ s⁻¹.
